Assay results published in article PMC9399999 (Nature Communications, 2022).

Target: Omicron RBD (SARS-CoV-2 Omicron BA.1 (B.1.1.529), S371L | S373P | S375F | K417N | G446S | S477N | E484A | Q493R | G496S | Q498R | …)
Assay: SPR
Details: both partners purified

B1: S304 antibody (IgG1) (antibody, V domains shown)
VH: EVQLVESGGGLVQPGGSLRLSCAASGFTFSSYDMHWVRQTTGKGLEWVSTIGTAGDTYYPDSVKGRFTISREDAKNSLYLQMNSLRAGDTAVYYCARGDSSGYYYYFDYWGQGTLLTVSS
VL: DIQMTQSPSSLSAAVGDRVTITCRASQSIGSYLNWYQQKPGKAPKLLIYAASSLQSGVPSRFSGSGSGTDFTLTISSLQPEDFAIYYCQQSYVSPTYTFGPGTKVDIK
notes: IgG1
Kd: 1.01 nM
